Reference: patent US8129336B1, “Inhibitor of the uracil-DNA glycosylase enzyme and uses thereof” (Consejo Superior de Investigaciones Cientificas, priority 2005, dated 2012)
“Also recorded” adds a separate entry of the source.

Tests used:
UDG of B. subtilis = biological target: T1, UDG of B. subtilis (Bacillus subtilis, UniProt P39615); experiment: Affinity chromatography on anti-FLAG M2 column, co-elution with p56FLAG; type: binding; conditions: extract of B. subtilis 110NA[pPR53.p56FLAG]; elution with FLAG peptide; peptide mass fingerprinting
T1 construct: endogenous in cells; host or cells: B. subtilis 110NA [pPR53.p56FLAG] lysate; UDG is the cell's own protein; only p56FLAG is plasmid-encoded
T1 sequence (P39615 whole entry, looked up): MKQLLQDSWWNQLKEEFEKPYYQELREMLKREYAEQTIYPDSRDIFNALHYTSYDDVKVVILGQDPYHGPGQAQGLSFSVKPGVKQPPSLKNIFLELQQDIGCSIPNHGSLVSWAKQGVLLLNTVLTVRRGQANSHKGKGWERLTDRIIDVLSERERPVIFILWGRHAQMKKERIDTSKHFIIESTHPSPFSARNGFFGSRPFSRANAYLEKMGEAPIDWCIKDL
Protocol: In order to analyse whether the UDG enzyme is a cellular target of protein p56, affinity chromatography assays were performed. Briefly, the B. subtilis 110NA [pPR53.p56FLAG] strain was grown in LB medium with phleomycin (0.8 μg/ml) at 30° C. to an OD560 equivalent to 10^8 viable cells per ml. The culture was concentrated 10-fold in TBS buffer (50 mM Tris-HCl, pH 7.5, 150 mM NaCl) and was lysed using the French press (20,000 psi). The lysate was centrifuged at 7,000 rpm and 4° C. in the Sorvall-SS.34 rotor for 10 minutes. The supernatant was loaded in an anti-FLAG M2 column (Sigma). The proteins bound to the column were eluted with the TBS buffer containing the FLAG peptide (500 μg/ml) (Sigma). The eluted proteins were precipitated with acetone, re-suspended in the loading buffer (60 mM Tris-HCl, pH 6.8, 2% SDS, 5% β-mercaptoethanol, 30% glycerol) and separated by electrophoresis in polyacrylamide/Tricine/SDS gels (Schagger and von Jagow (1987) Anal. Biochem. 166: 368-379). The gel was stained with SyproRuby (Molecular Probes). As a negative control, an extract from the 110NA[pPR53] strain was used. In a second experiment, protein p56 (2 μg) was incubated with the UDG enzyme of E. coli (0.2 μg, New England Biolabs). After 15 minutes at ambient temperature, the reaction was analysed by electrophoresis in native polyacrylamide gels (16%). The gel was stained with SpyroRuby.

human UNG2 enzyme = human UNG2 enzyme (Homo sapiens, UniProt P13051); conditions: cited from earlier work
Sequence of human UNG2 enzyme (P13051 whole entry): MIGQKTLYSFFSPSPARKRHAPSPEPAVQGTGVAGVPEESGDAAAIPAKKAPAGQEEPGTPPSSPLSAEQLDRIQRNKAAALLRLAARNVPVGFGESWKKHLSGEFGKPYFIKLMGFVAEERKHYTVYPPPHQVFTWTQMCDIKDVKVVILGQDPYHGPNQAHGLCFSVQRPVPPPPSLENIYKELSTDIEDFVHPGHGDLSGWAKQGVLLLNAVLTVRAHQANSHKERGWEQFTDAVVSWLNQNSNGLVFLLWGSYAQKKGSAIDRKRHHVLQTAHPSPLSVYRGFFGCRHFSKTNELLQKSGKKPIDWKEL

B1: p56FLAG: p56 protein that contains amino acid sequence DYKDDDDK (FLAG peptide) fused to the C-terminal end (protein)
chain: MVQNDFVDSYDVTMLLQDDDGKQYYEYHKGLSLSDFEVLYGNTADEIIKLRLDKVLDYKDDDDK
- interaction / co-elution with UDG enzyme (UDG of B. subtilis): protein D was identified to be the UDG enzyme; also recorded: interacts with the UDG enzyme

B2: UGI: UGI protein encoded by the PBS2 bacteriophage, known inhibitor of UDG (protein, UniProt P14739 1-84, looked up)
Uracil-DNA glycosylase …: MTNLSDIIEKETGKQLVIQESILMLPEEVEEVIGNKPESDILVHTAYDESTDENVMLLTSDAPEYKPWALVIQDSNGENKIKML
- blocking of UDG activity of human UNG2 (human UNG2 enzyme): blocks the UDG activity of the human UNG2 enzyme
